# Patent US11858972B2, “Micropeptides and uses thereof” (FUNDACIÓ PRIVADA INSTITUT D'INVESTIGACIÓ ONCOLÒGICA DE VALL …, priority 2018, dated 2024)
# B1: SEQ ID NO: 1: highly conserved 87 aa micropeptide coded by the lncRNA TINCR; predicted ubiquitin-like protein (protein, listed as Homo sapiens)
# chain: MEGLRRGLSRWKRYHIKVHLADEALLLPLTVRPRDTLSDLRAQLVGQGVSSWKRAFYYNARRLDDHQTVRDARLQDGSVLLLVSDPR
# Key:
# [1] = test system: BxPC-3 pancreatic cancer cell line; assay: Cell cycle analysis by flow cytometry; type: cell-based; details: BxPC-3, expression induced by doxycycline for 4 days
# Excerpt: (§1) FIG. 5. Micropeptide of sequence SEQ ID NO: 1 overexpression induces cell cycle arrest and cellular senescence. BxPC-3 cells were transduced with an inducible lentivirus coding HA-SEQ ID NO: 1. Micropeptide of sequence SEQ ID NO: 1 expression was induced by doxycycline treatment for 4 days. (A) Phase contrast images of SEQ ID NO:1-expressing cells and control cells. (B) Cell viability analysis by CellTiter-Glo assay. (C) Cell cycle analysis by flow cytometry. Left, histogram plots. Right, quantification of the number of cells in every cell cycle phase (D) Analysis of p27 and p21 expression by qPCR. (E) Western Blot of the indicated cells using anti-HA and anti-p21 antibodies. (F) Quantification of the number of SA-β-Gal positive cells in doxycycline-treated and untreated cells. (G) Representative pictures of the cell quantified in (F). Graphs show the mean±SEM, using at least 3 technical replicates. **P<0.01 ***P<0,001 **** P<0.0001, two-tailed t-test.
# (§2) Micropeptide of SEQ ID NO: 1 expression was induced in BxPC3 cells by treatment with doxycycline (2 μg/ml) for 4 days. Cells were fixed using 100% ethanol at 4° C., stained with Propidium Iodide, and cell cycle was analysed by flow cytometry (LSR-Fortessa cytometer). Cell viability in micropeptide of SEQ ID NO: 1-expressing cells was evaluated using CellTiter-Glo 2.0 (Promega) following manufacturer's instructions.
# [2] = test system: CDK inhibitors p27 and p21; assay: p27 and p21 expression by qPCR and Western Blot in BxPC-3; type: cell-based; details: BxPC-3, doxycycline-induced expression
# Excerpt: as §1
# Total RNA was extracted with Trizol® and treated with TURBO™ DNase following provider's recommendations. 1 μg of RNA was retrotranscribed using iScript™ cDNA Synthesis Kit (BioRad). Gene expression was analysed by quantitative real time PCR using PowerUp SYBR Green Master Mix (Thermo Fisher Scientific) in the 7900HT Fast Real-Time PCR System (Applied Biosystems). Cycle threshold (Ct) values were normalized to GAPDH. […]
# [3] = test system: BxPC-3 cells; assay: SA-β-gal staining assay; type: cell-based; details: BxPC-3, doxycycline-treated vs untreated
# Excerpt: as §1
# For SA-β-gal staining, cells were fixed and stained using a commercial senescence β-galactosidase staining kit (Cell Signalling) following manufacture's protocol.
# [4] = test system: H10 cells; assay: Cell cycle analysis by flow cytometry; type: cell-based
# Excerpt: FIG. 8. SEQ ID NO: 1 overexpression reduces cell proliferation. A549 and H10 cells were transduced with an inducible lentivirus coding HA-SEQ ID NO: 1. SEQ ID NO: 1 expression was induced by doxycycline treatment for 14 days. (A) Growth curve of transduced cells over 14 days of SEQ ID NO:1 expression. (B) Cell cycle analysis by flow cytometry. Left, histogram plots. Right, quantification of the number of cells in every cell cycle phase. Graphs show the mean±SD, using at least 3 technical replicates. **** P<0.0001, two-tailed t-test.
# as §2
# [5] = test system: A549 cancer cells; assay: Invasion assay (Boyden chamber, Matrigel); type: cell-based, human; details: A549, after 4 days of doxycycline induction, 24 h invasion
# Protocol: (§3) FIG. 9. SEQ ID NO: 1 overexpression impairs invasiveness and reduces mesenchymal traits in A549 and H10 cell lines. Invasion of indicated cells was analyzed in matrigel-coated inserts. (A) The undersides of membrane inserts containing invaded cells were fixed and stained with crystal violet and photographed 24 h after plating. (B) Number of invasive cells was calculated using ImageJ software. Bars plots show relative number of cells invading the chamber. (C) Analysis of several mesenchymal genes by qPCR. mRNA expression is shown relative to the control. * P<0.05, **P<0.01 two-tailed t-test.
# (§4) BxPC-3, MDA-MB-231, A549 and H10 cell lines were trypsinized, counted, and 20.000 cells/well were seeded in triplicate in a Corning® cell culture insert (Boyden chamber) in which the porous membrane is coated with a layer of Matrigel® to mimic an extra cellular matrix (ECM). Cells were allowed to invade through the coated membrane for 24 hours in the cell incubator at 37° C. After the incubation time, culture inserts were fixed in methanol 5 minutes at RT and stained using Crystal Violet 20 minutes at RT. The excess of Crystal Violet staining was removed washing with PBS and pictures of the chambers were taken using an Olympus CeIIR microscope. Invading cells were counted using ImageJ and fold change was calculated normalizing to the control.
# [6] = test system: H10 cancer cells; assay: Invasion assay (Boyden chamber, Matrigel); type: cell-based; details: H10, after 4 days of doxycycline induction, 24 h invasion
# Protocol: as §3, §4
# [7] = test system: EMT regulators VIMENTIN, SLUG, SNAIL, N-CADHERIN, TWIST1, TWIST2, ZEB1 and ZEB2; assay: Mesenchymal gene expression by qPCR in H10 SCC cell line; type: cell-based
# Protocol: as §3
# Total RNA was extracted with Trizol® and treated with TURBO™ DNase following provider's recommendations. 1 μg of RNA was retrotranscribed using iScript™ cDNA Synthesis Kit (BioRad). Gene expression was analysed by quantitative real time PCR using PowerUp SYBR Green Master Mix (Thermo Fisher Scientific) in the 7900HT Fast Real-Time PCR System (Applied Biosystems). Cycle threshold (Ct) values were normalized to GAPDH.
# [8] = test system: ubiquitylated proteins; assay: Co-Immunoprecipitation using Anti-HA and Western Blot; type: binding; details: immunoprecipitation with Anti-HA
# Excerpt: (§5) FIG. 11. Micropeptide of sequence SEQ ID NO: 1 expression changes cell ubiquitylation pattern. (A) Co-Immunoprecipitation using Anti-HA and Western Blot experiments indicate the presence of ubiquitylated proteins in the pull down of SEQ ID NO: 1 expressing cells. (B) Analysis of ubiquitylated protein levels by Western Blot in SEQ ID NO: 1 or empty vector BxPC-3 infected cells after proteasome blocking treatment with MG132.
# [9] = test system: protein ubiquitylation pattern in BxPC-3 infected cells; assay: Ubiquitylated protein levels by Western Blot after MG132; type: cell-based; details: proteasome blocking with MG132
# Excerpt: as §5
molecule,measurement,setting,value
B1,cell cycle,[1],induces cell cycle arrest in G1 phase
same,expression of the CDK inhibitors p27 and p21,[2],upregulation
same,number of senescent cells (SA-β-Gal-positive cells),[3],increase
same,cells arrested in G1 phase,[4],increase in cells arrested in G1 phase
same,invasion,[5],significant decrease in invasion
same,invasion,[6],significant decrease in invasion
same,"expression of the EMT regulators VIMENTIN, SLUG, SNAIL, N-CADHERIN, TWIST1, TWIST2, ZEB1 and ZEB2",[7],represses the expression
same,binding to ubiquitylated proteins,[8],binds to ubiquitylated proteins
same,protein ubiquitylation pattern,[9],alters protein ubiquitylation pattern
